# Test results as given in patent publication US20110039770A1, “INHIBITORS OF PROTEIN KINASE C ISOFORMS AND USES THEREOF” (PHARMAGAP INC., priority 2005, published 2011).
# Where a SMILES comes first, the peptide text is derived from it. [ ]: non-standard residue; d: D form.
# Assays:
# PKC-ζ = molecular target: T1, PKC-ζ (Homo sapiens, UniProt Q05513); assay: Competitive binding assay using cell extracts (Western blot); set-up: cytoplasmic extracts from different cell lines expressing appropriate PKC isoforms; endogenous in cells; host or cells: H661, CCD16Lu, LnCAP, MDAMB231, Du145; key: —: no detectable affinity; Low to very low affinity at 10X or 20X or both PRE concentrations in at least one cell line in the cell extract assay; Low affinity in purified isoform assay.; Moderate affinity at 10X or 20X or both PRE concentrations in at least one cell line in the cell extract assay.; High affinity at 10X or 20X or both PRE concentrations in at least one cell line in the cell extract assay; High affinity in purified isoform assay; conditions: Cell extract; PRE 10X or 20X antibody concentration
# T1 sequence (Q05513 1-592): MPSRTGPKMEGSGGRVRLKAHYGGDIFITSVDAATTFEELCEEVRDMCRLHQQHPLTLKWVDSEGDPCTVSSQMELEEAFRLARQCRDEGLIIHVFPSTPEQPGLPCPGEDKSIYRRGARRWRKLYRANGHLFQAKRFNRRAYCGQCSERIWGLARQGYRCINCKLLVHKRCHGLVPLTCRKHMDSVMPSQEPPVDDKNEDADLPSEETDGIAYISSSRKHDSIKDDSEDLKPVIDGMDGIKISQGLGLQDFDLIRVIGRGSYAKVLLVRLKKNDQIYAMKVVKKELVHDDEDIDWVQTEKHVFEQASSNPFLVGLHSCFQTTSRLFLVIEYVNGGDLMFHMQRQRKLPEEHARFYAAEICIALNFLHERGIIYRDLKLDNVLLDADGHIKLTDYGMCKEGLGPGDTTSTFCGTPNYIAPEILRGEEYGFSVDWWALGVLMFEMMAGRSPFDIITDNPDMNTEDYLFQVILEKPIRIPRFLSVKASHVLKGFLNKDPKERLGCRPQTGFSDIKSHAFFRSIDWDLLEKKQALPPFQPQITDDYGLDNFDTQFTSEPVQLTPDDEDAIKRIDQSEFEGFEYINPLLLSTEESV
# Method: (§1) Binding efficiency and specificity of the peptides PRE 2, 3, 4, 5, 6, 7, 8, 9, 10, 11, 12 and 13 (see Table 4) was also tested using cytoplasmic extracts from different cell lines expressing appropriate PKC isoforms as described for Example 1. Briefly, the protein cytoplasmic extracts were separated by electrophoresis and transferred onto nitrocellulose membranes by standard Western blotting procedures. The bands on the Western blots were detected with matching primary antibodies and alkaline phosphatase conjugated secondary antibody. The bands were then scanned and the relative density measurements obtained.
# (§2) This procedure to assess the binding characteristics of the PREs is based on competition binding of the PRE with the primary anti-isoform PKC specific antibodies. The lower the measured band density, the greater the binding of the PRE to the PKC isoform. The PREs were added at 10 and 20 times (10×, 20×) the primary antibody concentration, according to classical competition between antigenic peptide and primary antibody. The following cell lines (obtained from the ATCC) were used: H661—NCI human lung carcinoma NSCLC; MDAMB231—human highly invasive breast cancer cell line from pleural effusion; LS180—human colon adenocarcinoma; LnCAP—human prostate adenocarcinoma; CCD16Lu—human lung fibroblasts; Du145—human prostate carcinoma brain metastasis, and T24—human bladder carcinoma.
# (§3) In these cases, the 20× band density figures relative to control and 10× values were reliable.
# PKC-ε = molecular target: T2, PKC-ε (Homo sapiens, UniProt Q02156); assay: as above; set-up: cytoplasmic extracts from different cell lines expressing appropriate PKC isoforms; endogenous in cells; host or cells: CCD16Lu, LnCAP, Du145, MDAMB231, LS180; key: —: no detectable affinity; Low to very low affinity at 10X or 20X or both PRE concentrations in at least one cell line in the cell extract assay; Low affinity in purified isoform assay.; Moderate affinity at 10X or 20X or both PRE concentrations in at least one cell line in the cell extract assay.; High affinity at 10X or 20X or both PRE concentrations in at least one cell line in the cell extract assay; High affinity in purified isoform assay; conditions: Cell extract; PRE 10X or 20X antibody concentration
# T2 sequence (Q02156 1-737): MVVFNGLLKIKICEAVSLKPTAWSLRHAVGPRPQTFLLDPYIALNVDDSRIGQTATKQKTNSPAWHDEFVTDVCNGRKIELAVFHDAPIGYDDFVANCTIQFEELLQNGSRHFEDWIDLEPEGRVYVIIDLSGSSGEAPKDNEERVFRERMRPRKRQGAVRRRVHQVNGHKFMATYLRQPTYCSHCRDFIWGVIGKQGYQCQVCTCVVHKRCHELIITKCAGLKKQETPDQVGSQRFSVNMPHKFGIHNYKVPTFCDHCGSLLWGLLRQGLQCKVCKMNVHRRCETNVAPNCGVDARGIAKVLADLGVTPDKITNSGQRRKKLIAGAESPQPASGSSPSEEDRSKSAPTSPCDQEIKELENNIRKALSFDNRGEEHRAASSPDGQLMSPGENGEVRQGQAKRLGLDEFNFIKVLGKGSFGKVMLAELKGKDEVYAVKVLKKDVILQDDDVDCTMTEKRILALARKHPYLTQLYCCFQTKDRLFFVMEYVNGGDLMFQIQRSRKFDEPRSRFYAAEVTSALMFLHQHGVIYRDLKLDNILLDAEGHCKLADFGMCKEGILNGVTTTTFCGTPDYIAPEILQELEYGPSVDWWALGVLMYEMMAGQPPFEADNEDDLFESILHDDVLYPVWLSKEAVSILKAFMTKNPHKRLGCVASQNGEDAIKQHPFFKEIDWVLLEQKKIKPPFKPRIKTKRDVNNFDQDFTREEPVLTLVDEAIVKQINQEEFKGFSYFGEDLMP
# Method: as §1, §2, §3
Affinity for PKC isoform ζ (PKC-ζ),Affinity for PKC isoform ε (PKC-ε),Compound
M/H,—,Ac-KDAQNLI-NH2 [PRE 12]
M/L,M/L,Ac-ISIGILNQADK-NH2 [PRE 10]
M/L,M/L,Ac-isigilqnadk-NH2 (Ac-[dI][dS][dI]G[dI][dL][dQ][dN][dA][dD][dK]-NH2; SMILES CC[C@@H](C)[C@@H](NC(C)=O)C(=O)N[C@H](CO)C(=O)N[C@@H](C(=O)NCC(=O)N[C@@H](C(=O)N[C@H](CC(C)C)C(=O)N[C@H](CCC(N)=O)C(=O)N[C@H](CC(N)=O)C(=O)N[C@H](C)C(=O)N[C@H](CC(=O)O)C(=O)N[C@H](CCCCN)C(N)=O)[C@H](C)CC)[C@H](C)CC) [PRE 9]
—,—,Ac-RDAQNLI-NH2 [PRE 13]
—,—,Ac-RDAQNLIGISI-NH2 [PRE 11]

# Second part, the compound before the results:
Compound,Affinity for PKC isoform ζ (PKC-ζ),Affinity for PKC isoform ε (PKC-ε)
CC[C@H](C)[C@H](NC(=O)[C@H](CO)NC(=O)[C@@H](NC(=O)CNC(=O)[C@@H](NC(=O)[C@H](CC(C)C)NC(=O)[C@H](CC(N)=O)NC(=O)[C@H](CCC(N)=O)NC(=O)[C@H](C)NC(=O)[C@H](CC(=O)O)NC(=O)CNC(=O)CNC(=O)[C@H](CCCCN)NC(=O)[C@@H](NC(=O)[C@H](CCC(=O)O)NC(=O)[C@H](CCC(N)=O)NC(=O)[C@@H](NC(=O)CNC(=O)[C@H](CCCCN)NC(=O)[C@H](C)NC(C)=O)[C@@H](C)CC)C(C)C)[C@@H](C)CC)[C@@H](C)CC)C(N)=O [PRE 3] (Ac-AKGIQEVKGGDAQNLIGISI-NH2),—,L
Ac-ISIGILQNADK-NH2 (not fully specified; printed as Ac-ISIGILQNADK-NH2) [PRE 7],—,—
ILEDKGGDAQNLIGISI [PRE 8],,L
RRKKGGKDFVVKR [PRE 1],L,
Ac-KDANQLIGISI-NH2 [PRE 6],—,M
"CC[C@H](C)[C@H](NC(=O)[C@H](CO)NC(=O)[C@@H](NC(=O)CNC(=O)[C@@H](NC(=O)[C@H](CC(C)C)NC(=O)[C@H](CC(N)=O)NC(=O)[C@H](CCC(N)=O)NC(=O)[C@H](C)NC(=O)[C@H](CC(=O)O)NC(=O)[C@H](CCCCN)NC(C)=O)[C@@H](C)CC)[C@@H](C)CC)C(N)=O [PRE 4, Ac-KDAQNLIGISI-NH2] (Ac-KDAQNLIGISI-NH2)",—,H/L
CC[C@H](C)[C@H](NC(=O)[C@H](CO)NC(=O)[C@@H](NC(=O)CNC(=O)[C@@H](NC(=O)[C@H](CC(C)C)NC(=O)[C@H](CC(N)=O)NC(=O)[C@H](CCC(N)=O)NC(=O)[C@H](C)NC(=O)[C@H](CC(=O)O)NC(=O)[C@H](CCCCN)NC(=O)CNC(=O)CNC(=O)[C@H](CCCCN)NC(=O)[C@@H](NC(=O)[C@H](CCC(=O)O)NC(=O)[C@H](CCC(N)=O)NC(=O)[C@@H](NC(=O)CNC(=O)[C@H](CCCCN)NC(=O)[C@H](C)NC(C)=O)[C@@H](C)CC)C(C)C)[C@@H](C)CC)[C@@H](C)CC)C(N)=O [PRE 5] (Ac-AKGIQEVKGGKDAQNLIGISI-NH2),L/H,L
